The values below come from PMC7295969.

The target in this assay is Orfelia fultoni luciferase (Orfelia fultoni (endogenous in larvae)). The assay is described as follows: native gel or EMSA; 6% Native-PAGE of the luciferase fraction from anion exchange, no SDS or mercaptoethanol, 25 mM Tris/192 mM glycine, ice-cooled; band shown by bioluminescence with hot extract; the luminescent ~220 kDa band was eluted and re-run on denaturing SDS-PAGE (single ~70 kDa band).

Orfelia fultoni luciferase (enzyme) registered a stoichiometry N of 3.
